Measured values taken from the supplement of paper PMC7125110.
± gives the standard error. For part of these data: This sample holds only a part of the variants without activity.

B1: glmS ribozyme (parent)
chain: AUAAAAGCGCCAGAACUACAGAAAUGUAGUUGACGAGGAGGAGGUUUAUCGAAUUUUCGGCGGAUGCCUCCAAA

How the values were obtained:
Conditions in all cases: with glucosamine-6-phosphate
glucosamine-6-phosphate [1] = variants of: B1; assay: kcat; higher = faster cleavage; RNA array
In short: (§1)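 Barcoded ribozyme variants on sequenced MiSeq chips were transcribed in situ by E. coli RNA polymerase and followed at 37 °C through a hybridised Cy3 probe. Glucosamine-6-phosphate at 40 μM to 10 mM in HEPES/KCl/Mg(OAc)2 buffer was flowed in, and tiles were imaged over ~14 h. Signals were normalised to baseline and to non-cleaving reference variants, and per-tile medians were fit to one- or two-exponential decays to give kobs. Weighted Michaelis–Menten fits across concentrations gave kcat and KM.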

glucosamine-6-phosphate [2] = variants of: B1; assay: KM; higher = weaker cofactor use; RNA array
In short: as §1

glucosamine-6-phosphate [3] = variants of: B1; assay: self-cleavage kobs at 640 uM GlcN6P; higher = faster cleavage; RNA array
In short: as §1

glucosamine-6-phosphate [4] = variants of: B1; assay: self-cleavage kobs at 2500 uM GlcN6P; higher = faster cleavage; RNA array
In short: as §1

glucosamine-6-phosphate [5] = variants of: B1; assay: self-cleavage kobs at 10000 uM GlcN6P; higher = faster cleavage; RNA array
In short: as §1

glucosamine-6-phosphate [6] = variants of: B1; assay: self-cleavage kobs at 40 uM GlcN6P; higher = faster cleavage; RNA array
In short: as §1

glucosamine-6-phosphate [7] = variants of: B1; assay: self-cleavage kobs at 160 uM GlcN6P; higher = faster cleavage; RNA array
In short: as §1

Row | Variant | kcat (glucosamine-6-phosphate [1]) [s⁻¹] | KM (glucosamine-6-phosphate [2]) [µM] | self-cleavage kobs at 640 uM GlcN6P (glucosamine-6-phosphate [3]) [s⁻¹] | self-cleavage kobs at 2500 uM GlcN6P (glucosamine-6-phosphate [4]) [s⁻¹] | self-cleavage kobs at 10000 uM GlcN6P (glucosamine-6-phosphate [5]) [s⁻¹] | self-cleavage kobs at 40 uM GlcN6P (glucosamine-6-phosphate [6]) [s⁻¹] | self-cleavage kobs at 160 uM GlcN6P (glucosamine-6-phosphate [7]) [s⁻¹]
1 | C11A A64G | 0.000168 ± 1.1e-05 | 1190 ± 250 | 5.53e-05 ± 1.3e-05 | 0.000135 ± 2.7e-05 | 0.000147 ± 1.6e-05 | – | –
2 | C10U U54A | 4.72e-05 ± 5.3e-06 | – | – | 4.32e-05 ± 2.1e-05 | 4.37e-05 ± 9.7e-06 | < 1e-05 | < 1e-05
3 | C10U A14U | < 1e-05 | – | – | – | – | < 1e-05 | –
4 | C10U A14G | 0.000181 ± 2.4e-05 | 2130 ± 650 | 5.02e-05 ± 7.8e-06 | 8.95e-05 ± 8.6e-06 | 0.000159 ± 1.6e-05 | – | –
5 | G9A | 3.95e-05 ± 2.5e-06 | 5140 ± 880 | – | 1.33e-05 ± 3e-06 | 2.61e-05 ± 1.5e-06 | < 1e-05 | < 1e-05
6 | C11A A15U U65G C71U | < 1e-05 | – | – | – | – | – | –
7 | C10G G62C | < 1e-05 | – | – | – | – | – | –
8 | A6U U31G | 8.41e-05 ± 1e-05 | – | – | 7.42e-05 ± 1.9e-05 | 7.27e-05 ± 1.2e-05 | < 1e-05 | –
9 | A6U U31A | 0.000122 ± 2.6e-05 | – | – | 8.83e-05 ± 2.1e-05 | 9.85e-05 ± 2.2e-05 | – | –
10 | C11G A14G | 1.62e-05 ± 3.1e-06 | – | – | – | – | < 1e-05 | < 1e-05
11 | C11U A42G | 0.00345 ± 0.0015 | – | 0.000561 ± 0.00013 | 0.00178 ± 0.0004 | 0.0022 ± 0.00065 | 9.14e-05 ± 3.5e-05 | 0.000114 ± 3e-05
12 | G9A A48G G51A G63A | 1.15e-05 ± 4.5e-06 | – | – | – | – | – | –
13 | C10U G63A | < 1e-05 | – | < 1e-05 | < 1e-05 | – | – | –
14 | C8A C10A G38A C50G | 5.64e-05 ± 2.2e-05 | – | 9.23e-05 ± 1.7e-05 | – | 3.67e-05 ± 1e-05 | 3.68e-05 ± 1.4e-05 | 8.75e-05 ± 1.8e-05
15 | G7A A39G | 0.000288 ± 6.2e-05 | – | – | – | 2.51e-05 ± 7.3e-06 | – | < 1e-05
16 | A6G U30G | 0.000154 ± 1.6e-05 | 5370 ± 1400 | – | 5.13e-05 ± 1.9e-05 | 9.98e-05 ± 1.4e-05 | < 1e-05 | < 1e-05
17 | A6U U54A C67A | 2.15e-05 ± 2.2e-06 | – | – | – | – | – | < 1e-05
18 | C10A C67U C71G | 2.93e-05 ± 1.4e-05 | – | – | – | – | – | –
19 | C11A U31G | 0.000375 ± 9.9e-05 | 3900 ± 1600 | 4.58e-05 ± 1.1e-05 | 0.000179 ± 3.7e-05 | 0.000253 ± 5.7e-05 | – | –
20 | C11A U31A | 0.00019 ± 2e-05 | 1480 ± 350 | 5.42e-05 ± 1e-05 | 0.000147 ± 2.8e-05 | 0.000158 ± 2.3e-05 | – | –
21 | A6G A53C U54A | 5.34e-05 ± 9e-06 | – | – | 5.76e-05 ± 1.9e-05 | 4.91e-05 ± 9.2e-06 | < 1e-05 | < 1e-05

Row | Variant | kcat (glucosamine-6-phosphate [1]) [s⁻¹] | KM (glucosamine-6-phosphate [2]) [µM] | self-cleavage kobs at 640 uM GlcN6P (glucosamine-6-phosphate [3]) [s⁻¹] | self-cleavage kobs at 2500 uM GlcN6P (glucosamine-6-phosphate [4]) [s⁻¹] | self-cleavage kobs at 10000 uM GlcN6P (glucosamine-6-phosphate [5]) [s⁻¹] | self-cleavage kobs at 40 uM GlcN6P (glucosamine-6-phosphate [6]) [s⁻¹] | self-cleavage kobs at 160 uM GlcN6P (glucosamine-6-phosphate [7]) [s⁻¹]
22 | C11A A39U | 0.000122 ± 2.3e-05 | – | – | 7e-05 ± 9.6e-06 | 9.43e-05 ± 1.2e-05 | – | –
23 | G9C G37C | 1.88e-05 ± 8.6e-06 | – | – | – | < 1e-05 | – | –
24 | C10A C50U | < 1e-05 | – | – | – | < 1e-05 | – | –
25 | A6U A53G | 0.000783 ± 0.00011 | 8850 ± 1500 | 5.15e-05 ± 9e-06 | 0.000178 ± 2.2e-05 | 0.000404 ± 8.1e-05 | – | –
26 | A6U A53U | 0.000209 ± 3.5e-05 | 2570 ± 1100 | – | 0.000114 ± 1.6e-05 | 0.000159 ± 2.3e-05 | – | –
27 | C11A A52G C58G | 1.09e-05 ± 2.8e-06 | – | – | – | – | – | < 1e-05
28 | C11A C67U | 4.14e-05 ± 2.5e-06 | – | 3.1e-05 ± 1.4e-05 | 3.53e-05 ± 1e-05 | 4.17e-05 ± 6.9e-06 | – | –
29 | C8A G29A C50G G66A C70G | 7.47e-05 ± 2e-05 | – | 4.95e-05 ± 1.7e-05 | 7.56e-05 ± 1.6e-05 | – | – | 9e-05 ± 1.5e-05
30 | C10U A52C C61A U69A | < 1e-05 | – | – | – | – | – | –
31 | C8A G37U C70A | 0.00017 ± 4.3e-05 | – | 0.000214 ± 6.2e-05 | 0.000331 ± 0.00011 | 0.000139 ± 3.4e-05 | 7.9e-05 ± 2.3e-05 | –
32 | C10U C50A | < 1e-05 | – | – | – | < 1e-05 | < 1e-05 | –
33 | C8A G60A | < 1e-05 | 86.3 ± 25 | – | – | – | – | < 1e-05
34 | G9U C11A | < 1e-05 | 159 ± 62 | < 1e-05 | – | – | < 1e-05 | < 1e-05
35 | C11A G29A | 3.97e-05 ± 1.6e-06 | 2550 ± 350 | – | – | 3.17e-05 ± 9.4e-06 | – | –
36 | G7A U31G | 2.76e-05 ± 2.9e-06 | 2490 ± 920 | – | – | – | – | –
37 | A6G G32U | < 1e-05 | – | – | – | – | < 1e-05 | –
38 | C8G C10A | < 1e-05 | – | < 1e-05 | < 1e-05 | < 1e-05 | < 1e-05 | < 1e-05
39 | G7A G38A | < 1e-05 | – | – | – | – | – | –
40 | C10U G29A | < 1e-05 | – | – | – | < 1e-05 | < 1e-05 | –
41 | C10U G29C | 1.05e-05 ± 2.4e-06 | – | – | – | – | – | –
